Measurements: US10314894B2, “Treatment of cardio-renal disease using PCSK6” (THE CLEVELAND CLINIC FOUNDATION, priority 2014, dated 2019)
Entries after “also recorded” stand apart in the source; their conditions may differ.

Molecular target: T1, corin WT (Homo sapiens, UniProt Q9Y5Q5)
T1 construct: expressed in transfected cells; host or cells: HEK293
T1 sequence (Q9Y5Q5 1-1042): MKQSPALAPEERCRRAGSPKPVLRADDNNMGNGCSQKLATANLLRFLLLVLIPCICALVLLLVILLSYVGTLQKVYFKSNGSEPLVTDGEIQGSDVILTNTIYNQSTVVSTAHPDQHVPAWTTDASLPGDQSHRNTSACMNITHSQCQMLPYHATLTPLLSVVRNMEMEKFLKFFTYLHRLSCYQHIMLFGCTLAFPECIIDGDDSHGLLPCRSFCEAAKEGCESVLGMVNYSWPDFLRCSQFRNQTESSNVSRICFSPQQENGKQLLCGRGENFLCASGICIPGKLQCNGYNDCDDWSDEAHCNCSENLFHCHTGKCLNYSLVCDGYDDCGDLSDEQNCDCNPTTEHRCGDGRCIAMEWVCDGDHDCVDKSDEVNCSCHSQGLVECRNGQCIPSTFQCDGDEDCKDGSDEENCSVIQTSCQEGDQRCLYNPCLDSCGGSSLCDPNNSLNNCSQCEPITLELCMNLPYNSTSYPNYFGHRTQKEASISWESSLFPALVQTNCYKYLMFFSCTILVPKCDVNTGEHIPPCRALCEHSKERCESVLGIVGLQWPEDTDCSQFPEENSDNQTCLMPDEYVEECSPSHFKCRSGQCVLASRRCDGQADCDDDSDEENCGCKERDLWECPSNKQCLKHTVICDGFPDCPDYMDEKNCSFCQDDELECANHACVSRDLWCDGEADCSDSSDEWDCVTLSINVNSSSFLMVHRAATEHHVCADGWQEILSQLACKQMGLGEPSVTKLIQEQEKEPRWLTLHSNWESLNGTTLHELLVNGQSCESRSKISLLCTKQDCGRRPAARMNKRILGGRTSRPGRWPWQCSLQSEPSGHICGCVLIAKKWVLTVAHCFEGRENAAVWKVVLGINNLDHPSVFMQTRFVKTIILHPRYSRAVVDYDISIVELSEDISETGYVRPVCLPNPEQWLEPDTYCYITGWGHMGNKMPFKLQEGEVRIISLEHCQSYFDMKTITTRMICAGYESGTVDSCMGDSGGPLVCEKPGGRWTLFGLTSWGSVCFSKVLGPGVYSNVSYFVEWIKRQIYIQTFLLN
Test: Corin activation by purified PCSK6 on HEK293 cells, corin WT
Format: cell-based
Details: increasing concentrations, 2 h, 37° C.
Procedure: HEK293 and HL-1 cells expressing recombinant corin in 6-well plates were incubated with 1.5 mL (200 μM) of membrane impermeable Sulfo-NHS-SS-biotin for 5 min. Qi et al., J Biol Chem 286, 20963-20969 (2011). A quenching solution was added to the wells and incubated on ice for 10 min. Cells were lysed in the lysis buffer. Labeled proteins were isolated with avidin-coupled agarose beads and analyzed by Western blotting.
Stable HEK293 cells were established to produce human PCSK6 with a C-terminal flag tag. The cells were cultured in DMEM with 10% FBS and 600 μg/mL G418. At confluency, the cells were washed with PBS and cultured with Reduced-Serum Medium. After 72 h, the conditioned medium was collected, centrifuged (10 min at 17,000 g) to remove cell debris, and concentrated to ⅕ of the original volume using a Centrifugal filter unit at 4° C. The concentrated medium was incubated with anti-flag M2 affinity bead slurry in a volume ratio of 25:1 on a rotator at 4° C. for 2 h. […] After centrifugation, the supernatant containing purified PCSK6 was collected, and analyzed by SDS-PAGE followed by silver staining and Western blotting.
Stable HEK293 cells expressing human corin were cultured in 6-well plates in DMEM with 10% FBS and 2 μM monensin. […] After 2 h, cell surface proteins were labeled and corin protein was analyzed by Western blotting.

B1: proprotein convertase subtilisin/kexin-6 (protein, listed as Homo sapiens)
chain: MPPRAPPAPGPRPPPRAAAATDTAAGAGGAGGAGGAGGPGFRPLAPRPWRWLLLLALPAACSAPPPRPVYTNHWAVQVLGGPAEADRVAAAHGYLNLGQIGNLEDYYHFYHSKTFKRSTLSSRGPHTFLRMDPQVKWLQQQEVKRRVKRQVRSDPQALYFNDPIWSNMWYLHCGDKNSRCRSEMNVQAAWKRGYTGKNVVVTILDDGIERNHPDLAPNYDSYASYDVNGNDYDPSPRYDASNENKHGTRCAGEVAASANNSYCIVGIAYNAKIGGIRMLDGDVTDVVEAKSLGIRPNYIDIYSASWGPDDDGKTVDGPGRLAKQAFEYGIKKGRQGLGSIFVWASGNGGREGDYCSCDGYTNSIYTISVSSATENGYKPWYLEECASTLATTYSSGAFYERKIVTTDLRQRCTDGHTGTSVSAPMVAGIIALALEANSQLTWRDVQHLLVKTSRPAHLKASDWKVNGAGHKVSHFYGFGLVDAEALVVEAKKWTAVPSQHMCVAASDKRPRSIPLVQVLRTTALTSACAEHSDQRVVYLEHVVVRTSISHPRRGDLQIYLVSPSGTKSQLLAKRLLDLSNEGFTNWEFMTVHCWGEKAEGQWTLEIQDLPSQVRNPEKQGKLKEWSLILYGTAEHPYHTFSAHQSRSRMLELSAPELEPPKAALSPSQVEVPEDEEDYTAQSTPGSANILQTSVCHPECGDKGCDGPNADQCLNCVHFSLGSVKTSRKCVSVCPLGYFGDTAARRCRRCHKGCETCSSRAATQCLSCRRGFYHHQEMNTCVTLCPAGFYADESQKNCLKCHPSCKKCVDEPEKCTVCKEGFSLARGSCIPDCEPGTYFDSELIRCGECHHTCGTCVGPGREECIHCAKNFHFHDWKCVPACGEGFYPEEMPGLPHKVCRRCDENCLSCAGSSRNCSRCKTGFTQLGTSCITNHTCSNADETFCEMVKSNRLCERKLFIQFCCRTCLLAG
modifications: C-terminal FLAG tag
activation of corin on the cell surface by purified recombinant PCSK6: activated corin on the surface of HEK293 cells in a dose-depending manner; also recorded: activated corin WT
